B1: PRPH (parent)
chain: DEIEFLKKLHEEELRDLQVSVESQ

Variants of: B1
Test: protein stability index of a GFP-peptide fusion (GPS, HEK-293T) (PSI 1-6); higher = more stable
Conditions: c terminus: a fixed tail appended
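Note: lentivirally expressed fusions sorted by FACS into six bins by GFP to DsRed ratio, PSI derived from sequencing read proportions per bin multiplied by bin number.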

| Variant | protein stability index |
| --- | --- |
| DEIEFLKKLHEEELRKLQVSVESQ | 4.94 |
| DEIEFLKKLHEEELRSLQVSVESQ | 5.14 |
| DEIEFLKKLHEEELRFLQVSVESQ | 3.1 |
| DEIEFLKKLHEEELRGLQVSVESQ | 4.95 |
| DEIEFLKKLHEEELRCLQVSVESQ | 4.28 |
| DEIEFLKKLHEEELRMLQVSVESQ | 3.9 |
| DEIEFLKKLHEEELRPLQVSVESQ | 4.59 |
| DEIEFLKKLHEEELRILQVSVESQ | 3.82 |
| DEIEFLKKLHEEELRQLQVSVESQ | 4.35 |
| DEIEFLKKLHEEELRNLQVSVESQ | 4.2 |
| DEIEFLKKLHEEELRTLQVSVESQ | 4.72 |
| DEIEFLKKLHEEELRRLQVSVESQ | 3.96 |
| DEIEFLKKLHEEELRWLQVSVESQ | 3.15 |
| DEIEFLKKLHEEELRLLQVSVESQ | 2.97 |
| DEIEFLKKLHEEELRALQVSVESQ | 4.6 |
| DEIEFLKKLHEEELRYLQVSVESQ | 3.49 |
| DEIEFLKKLHEEELRHLQVSVESQ | 4.67 |
| DEIEFLKKLHEEELRVLQVSVESQ | 4.34 |
| DEIEFLKKLHEEELRELQVSVESQ | 4.31 |
| DEIEFLKKLHEEEGRDLQVSVESQ | 5.14 |
| DEIEFLKKLHEEEWRDLQVSVESQ | 4.38 |
| DEIEFLKKLHEEEYRDLQVSVESQ | 4.6 |
| DEIEFLKKLHEEECRDLQVSVESQ | 5.18 |
| DEIEFLKKLHEEERRDLQVSVESQ | 5.22 |

| Variant | protein stability index |
| --- | --- |
| DEIEFLKKLHEEEDRDLQVSVESQ | 5.57 |
| DEIEFLKKLHEEENRDLQVSVESQ | 5.08 |
| DEIEFLKKLHEEEQRDLQVSVESQ | 4.84 |
| DEIEFLKKLHEEEVRDLQVSVESQ | 5.27 |
| DEIEFLKKLHEEETRDLQVSVESQ | 5.78 |
| DEIEFLKKLHEEEIRDLQVSVESQ | 4.66 |
| DEIEFLKKLHEEEARDLQVSVESQ | 4.95 |
| DEIEFLKKLHEEESRDLQVSVESQ | 5.18 |
| DEIEFLKKLHEEEPRDLQVSVESQ | 4.71 |
| DEIEFLKKLHEEEKRDLQVSVESQ | 4.92 |
| DEIEFLKKLHEEEHRDLQVSVESQ | 5.31 |
| DEIEFLKKLHEEEERDLQVSVESQ | 4.85 |
| DEIEFLKKLHEEEFRDLQVSVESQ | 4.24 |
| DEIEFLKKLHEEEMRDLQVSVESQ | 5.02 |
| DEIEFLKKLHEEELRDLHVSVESQ | 4.69 |
| DEIEFLKKLHEEELRDLNVSVESQ | 5.11 |
| DEIEFLKKLHEEELRDLRVSVESQ | 4.62 |
| DEIEFLKKLHEEELRDLEVSVESQ | 4.81 |
| DEIEFLKKLHEEELRDLWVSVESQ | 3.39 |
| DEIEFLKKLHEEELRDLMVSVESQ | 4.37 |
| DEIEFLKKLHEEELRDLVVSVESQ | 4.38 |
| DEIEFLKKLHEEELRDLPVSVESQ | 5.3 |
| DEIEFLKKLHEEELRDLFVSVESQ | 3.36 |
| DEIEFLKKLHEEELRDLGVSVESQ | 5 |

| Variant | protein stability index |
| --- | --- |
| DEIEFLKKLHEEELRDLKVSVESQ | 4.63 |
| DEIEFLKKLHEEELRDLDVSVESQ | 5.27 |
| DEIEFLKKLHEEELRDLAVSVESQ | 4.46 |
| DEIEFLKKLHEEELRDLTVSVESQ | 5.36 |
| DEIEFLKKLHEEELRDLYVSVESQ | 4.21 |
| DEIEFLKKLHEEELRDLSVSVESQ | 5.08 |
| DEIEFLKKLHEEELRDLIVSVESQ | 4.4 |
| DEIEFLKKLHEEELRDLLVSVESQ | 3.89 |
| DEIEFLKKLHEEELRDLCVSVESQ | 4.86 |
| DEIEFLKKLHEEELRDLQASVESQ | 5.23 |
| DEIEFLKKLHEEELRDLQDSVESQ | 5.58 |
| DEIEFLKKLHEEELRDLQFSVESQ | 4.39 |
| DEIEFLKKLHEEELRDLQHSVESQ | 5.27 |
| DEIEFLKKLHEEELRDLQISVESQ | 5.18 |
| DEIEFLKKLHEEELRDLQGSVESQ | 5.15 |
| DEIEFLKKLHEEELRDLQESVESQ | 5 |
| DEIEFLKKLHEEELRDLQCSVESQ | 5.23 |
| DEIEFLKKRHEEELRDLQVSVESQ | 5.29 |
| DEIEFLKKNHEEELRDLQVSVESQ | 5.34 |
| DEIEFLKKQHEEELRDLQVSVESQ | 4.98 |
| DEIEFLKKYHEEELRDLQVSVESQ | 4.44 |
| DEIEFLKKPHEEELRDLQVSVESQ | 5.52 |
| DEIEFLKKSHEEELRDLQVSVESQ | 5.4 |
| DEIEFLKKTHEEELRDLQVSVESQ | 5.3 |

| Variant | protein stability index |
| --- | --- |
| DEIEFLKKVHEEELRDLQVSVESQ | 5.01 |
| DEIEFLKKWHEEELRDLQVSVESQ | 4.38 |
| DEIEFLKKMHEEELRDLQVSVESQ | 4.82 |
| DEIEFLKKLHVEELRDLQVSVESQ | 3.99 |
| DEIEFLKKLHFEELRDLQVSVESQ | 3.69 |
| DEIEFLKKLHTEELRDLQVSVESQ | 4.46 |
| DEIEFLKKLHQEELRDLQVSVESQ | 4.08 |
| DEIEFLKKLHPEELRDLQVSVESQ | 4.34 |
| DEIEFLKKLHMEELRDLQVSVESQ | 3.99 |
| DEIEFLKKLHYEELRDLQVSVESQ | 2.95 |
| DEIEFLKKLHGEELRDLQVSVESQ | 4.95 |
| DEIEFLKKLHSEELRDLQVSVESQ | 4.52 |
| DEIEFLKKLHCEELRDLQVSVESQ | 4.09 |
| DEIEFLKKLHHEELRDLQVSVESQ | 4.42 |
| DEIEFLKKLHNEELRDLQVSVESQ | 4.57 |
| DEIEFLKKLHREELRDLQVSVESQ | 4.23 |
| DEIEFLKKLHWEELRDLQVSVESQ | 3.21 |
| DEIEFLKKLHDEELRDLQVSVESQ | 4.94 |
| DEIEFLKKLHIEELRDLQVSVESQ | 4.01 |
| DEIEFLKKLHKEELRDLQVSVESQ | 4.92 |
| DEIEFLKKLHAEELRDLQVSVESQ | 4.29 |
| DEIEFLKKLHLEELRDLQVSVESQ | 4.11 |
| DEIEFLKKLHEGELRDLQVSVESQ | 4.19 |
| DEIEFLKKLHETELRDLQVSVESQ | 4.43 |

| Variant | protein stability index |
| --- | --- |
| DEIEFLKKLHEIELRDLQVSVESQ | 4.05 |
| DEIEFLKKLHERELRDLQVSVESQ | 4.8 |
| DEIEFLKKLHEWELRDLQVSVESQ | 4.12 |
| DEIEFLKKLHEPELRDLQVSVESQ | 4.77 |
| DEIEFLKKLHENELRDLQVSVESQ | 4.5 |
| DEIEFLKKLHEKELRDLQVSVESQ | 4.82 |
| DEIEFLKKLHEFELRDLQVSVESQ | 4.07 |
| DEIEFLKKLHECELRDLQVSVESQ | 4.54 |
| DEIEFLKKLHEHELRDLQVSVESQ | 4.64 |
| DEIEFLKKLHEVELRDLQVSVESQ | 4.1 |
| DEIEFLKKLHEAELRDLQVSVESQ | 4.69 |
| DEIEFLKKLHEQELRDLQVSVESQ | 4.53 |
| DEIEFLKKLHEMELRDLQVSVESQ | 4.33 |
| DEIEFLKKLHEYELRDLQVSVESQ | 4.07 |
| DEIEFLKKLHEDELRDLQVSVESQ | 4.41 |
| DEIEFLKKLHELELRDLQVSVESQ | 4.04 |
| DEIEFLKKLHESELRDLQVSVESQ | 4.67 |
| DEIEFLKKLHEEELMDLQVSVESQ | 4.58 |
| DEIEFLKKLHEEELDDLQVSVESQ | 5.45 |
| DEIEFLKKLHEEELPDLQVSVESQ | 4.98 |
| DEIEFLKKLHEEELVDLQVSVESQ | 4.94 |
| DEIEFLKKLHEEELHDLQVSVESQ | 4.39 |
| DEIEFLKKLHEEELLDLQVSVESQ | 4.38 |
| DEIEFLKKLHEEELWDLQVSVESQ | 3.91 |

| Variant | protein stability index |
| --- | --- |
| DEIEFLKKLHEEELQDLQVSVESQ | 4.66 |
| DEIEFLKKLHEEELNDLQVSVESQ | 4.91 |
| DEIEFLKKLHEEELIDLQVSVESQ | 4.79 |
| DEIEFLKKLHEEELCDLQVSVESQ | 4.53 |
| DEIEFLKKLHEEELADLQVSVESQ | 5.18 |
| DEIEFLKKLHEEELEDLQVSVESQ | 4.83 |
| DEIEFLKKLHEEELFDLQVSVESQ | 4.15 |
| DEIEFLKKLHEEELSDLQVSVESQ | 4.8 |
| DEIEFLKKLHEEELYDLQVSVESQ | 4.58 |
| DEIEFLKKLHEEELGDLQVSVESQ | 4.28 |
| DEIEFLKKLHEEELKDLQVSVESQ | 4.59 |
| DEIEFLKKLHEEELTDLQVSVESQ | 4.51 |
| DEIEFLKKLHEEYLRDLQVSVESQ | 3.95 |
| DEIEFLKKLHEECLRDLQVSVESQ | 3.59 |
| DEIEFLKKLHEEPLRDLQVSVESQ | 5.05 |
| DEIEFLKKLHEEKLRDLQVSVESQ | 5.25 |
| DEIEFLKKLHEENLRDLQVSVESQ | 4.97 |
| DEIEFLKKLHEEVLRDLQVSVESQ | 3.73 |
| DEIEFLKKLHEEALRDLQVSVESQ | 3.9 |
| DEIEFLKKLHEESLRDLQVSVESQ | 4.16 |
| DEIEFLKKLHEEILRDLQVSVESQ | 2.74 |
| DEIEFLKKLHEERLRDLQVSVESQ | 4.42 |
| DEIEFLKKLHEEDLRDLQVSVESQ | 4.97 |
| DEIEFLKKLHEEQLRDLQVSVESQ | 4.65 |

| Variant | protein stability index |
| --- | --- |
| DEIEFLKKLHEEFLRDLQVSVESQ | 2.85 |
| DEIEFLKKLHEEMLRDLQVSVESQ | 3.46 |
| DEIEFLKKLHEEHLRDLQVSVESQ | 4.45 |
| DEIEFLKKLHEEGLRDLQVSVESQ | 4.83 |
| DEIEFLKKLHEELLRDLQVSVESQ | 3.27 |
| DEIEFLKKLHEETLRDLQVSVESQ | 4.05 |
| DEIEFLKKLKEEELRDLQVSVESQ | 4.78 |
| DEIEFLKKLMEEELRDLQVSVESQ | 3.88 |
| DEIEFLKKLAEEELRDLQVSVESQ | 4.42 |
| DEIEFLKKLEEEELRDLQVSVESQ | 5.23 |
| DEIEFLKKLFEEELRDLQVSVESQ | 3.47 |
| DEIEFLKKLYEEELRDLQVSVESQ | 4.18 |
| DEIEFLKKLWEEELRDLQVSVESQ | 3.54 |
| DEIEFLKKLPEEELRDLQVSVESQ | 5.1 |
| DEIEFLKKLQEEELRDLQVSVESQ | 5.03 |
| DEIEFLKKLIEEELRDLQVSVESQ | 3.37 |
| DEIEFLKKLTEEELRDLQVSVESQ | 4.95 |
| DEIEFLKKLVEEELRDLQVSVESQ | 3.52 |
| DEIEFLKKLNEEELRDLQVSVESQ | 4.16 |
| DEIEFLKKLREEELRDLQVSVESQ | 4.87 |
| DEIEFLKKLCEEELRDLQVSVESQ | 4.56 |
| DEIEFLKKLGEEELRDLQVSVESQ | 4.64 |
| DEIEFLKKLSEEELRDLQVSVESQ | 5.18 |
| DEIEFLKKLDEEELRDLQVSVESQ | 5.25 |

| Variant | protein stability index |
| --- | --- |
| DEIEFLKKLLEEELRDLQVSVESQ | 2.52 |
| DEIEFLKKLHEEELRDNQVSVESQ | 4.45 |
| DEIEFLKKLHEEELRDPQVSVESQ | 5.16 |
| DEIEFLKKLHEEELRDTQVSVESQ | 5.06 |
| DEIEFLKKLHEEELRDQQVSVESQ | 5.15 |
| DEIEFLKKLHEEELRDDQVSVESQ | 5.25 |
| DEIEFLKKLHEEELRDWQVSVESQ | 4.8 |
| DEIEFLKKLHEEELRDVQVSVESQ | 5.02 |
| DEIEFLKKLHEEELRDYQVSVESQ | 3.39 |
| DEIEFLKKLHEEELRDKQVSVESQ | 4.81 |
| DEIEFLKKLHEEELRDCQVSVESQ | 4.92 |
| DEIEFLKKLHEEELRDIQVSVESQ | 4.97 |
| DEIEFLKKLHEEELRDRQVSVESQ | 5.06 |
| DEIEFLKKLHEEELRDEQVSVESQ | 4.98 |
| DEIEFLKKLHEEELRDMQVSVESQ | 4.97 |
| DEIEFLKKLHEEELRDHQVSVESQ | 4.6 |
| DEIEFLKKLHEEELRDAQVSVESQ | 5.15 |
| DEIEFLKKLHEEELRDGQVSVESQ | 5.21 |
| DEIEFLKKLHEEELRDSQVSVESQ | 4.9 |
| DEIEFLKKLHEEELRDFQVSVESQ | 4.69 |
